Data taken from US12116387B2, “Antimicrobial peptides” (priority 2021, dated 2024).

What was measured:
[1] = tested on: human red blood cells (hRBCs); test: Cytotoxicity / hemolysis against human red blood cells; type: cell-based; settings: hRBCs
Method: Once the mechanisms by which the peptide targeted bacterial cells was elucidawted, the effect of the pentapeptide motif insertion on cytotoxicity against mammalian cells was evaluated.

[2] = tested on: human embryonic kidney (HEK293) cells; test: Cytotoxicity against HEK293 cells; type: cell-based; settings: HEK293
Description: The FLPII motif was chosen for the permutations to preserve the natural antimicrobial activity of mast-L and also conserve the hydrophobic content inserted in the N-terminal extremity for the initial design of mast-MO. Next, we assessed the antimicrobial (FIG. 10) and cytotoxic activities of the mast-MO analog library against HEK293 cells (FIG. 6C). These specific cell line was chosen as it derives from human embryonic kidney cells and potential antimicrobial (i.e., AMPs, antibiotics) toxicity affects the kidneys, which are responsible for clearing such molecules (34). Also measured was whether the peptides aggregated at the highest concentration tested (128 μmoL^−1) (Table 7) since the motif inserted is composed of residues with aliphatic or aromatic side chain groups that may be prone to aggregation when in proximity within the primary peptide sequence, thus altering biological activity. Minor changes to the first five residues inserted in the mast-MO primary sequence led to a pronounced decrease in cytotoxic activity (2.5 to 5-fold) compared to mast-MO (FIG. 6C).

[3] = tested on: murine fibroblasts (L929); test: Cytotoxicity against L929 fibroblasts (MTT); type: cell-based; settings: L929
Method: Mammalian cells toxicity assays. L929 mice fibroblasts (Rio de Janeiro Cell Bank) and SPCs were seeded in 96-well microtiter plates in a concentration of 1.0×10^5 cells per well, in DMEM medium, supplemented with different concentrations of tested peptides (1-600 μM). After 48 h incubation, a thiazolyl blue tetrazolium bromide (MTT) protocol was performed. Briefly, 60% of the medium was removed, and 10 μL of MTT (5 mg mL^−1) (Sigma, USA) solution was added to each well and the plate was incubated for 4 h, in 5% CO2, at 37° C. The blue formazan product generated was dissolved by the addition of 100 μL of 100% DMSO (Mallinckrodt, Germany) per well. Plates were then gently swirled for 5 min, at room temperature, to dissolve the precipitate. The absorbance was monitored at 575 nm using a microplate spectrophotometer (Bio-Tek, USA). Cytotoxicity was determined as a percentage of the maximum value after subtracting the background. The results were expressed as the percentage of each sample compared to the negative control (PBS buffer, pH 7.4) and cell culture was incubated in a lysis buffer (10 mM Tris, pH 7.4, 1 mM ethylenediamine tetraacetic acid (EDTA), and 0.1% Triton X-100).

[4] = tested on: murine macrophages monocytes (RAW 264.7); test: Cytotoxicity against RAW 264.7 cells (MTT); type: cell-based; settings: RAW 264.7 (Table 2)
leukocytes = test: Leukocyte migration to the peritoneal cavity of mice infected with E. coli ATCC8739; type: in vivo, C57BL/6 mice; settings: mast-MO 10 mg Kg^−1, mast-L 5 mg Kg^−1
Method: To test whether the FLPII motif within the mast-MO sequence led to increased immunomodulatory and chemotactic properties with respect to mast-L, ELISA experiments were performed using the peritoneal fluid collected from mice (FIG. 5a). C57BL/6 mice were infected with both Gram-negative and Gram-positive pathogens and administered either mast-L or mast-MO intraperitoneally. For mice infected with E. coli ATCC8739, we monitored the peritoneal cavity to detect and quantify the release and presence of several immune mediators (FIG. 4E). […] This effect was similar to the positive control group of mice treated with […] (TGA) (FIG. 4B). […] We monitored, via ELISAs, the cytokine profiles present within the peritoneal cavity of mice infected with E. coli ATCC8739 and S. aureus ATCC29213 (FIGS. 4E and FIG. 4F, respectively) and treated with a single dose of peptide. […]
Isolation of leukocytes from the peritoneal cavity of mice. Leukocyte migration into the peritoneal cavity of uninfected C57BL/6 mice treated with 10 mg Kg^−1 of peptides was evaluated to assess the chemotactic activity of the peptides, as previously described (11). […] Leukocyte counts present in the in peritoneal cavity of mice infected with E. coli ATCC 8739 were quantified. […] The results are expressed as the number of cells per cavity (48).

S. aureus ATCC29213 = test: Systemic sepsis infection mouse model, S. aureus ATCC29213; type: in vivo; settings: 5 mg Kg^−1 i.p.
Method: (§1) FIG. 5A-5I pertains to a study of the anti-infective activity of mast-MO against Gram-negative and Gram-positive pathogens in a lethal sepsis infection model. In FIG. 5A mice were infected with bacteria, treated with each peptide or antibiotic and monitored for 8 days. Survival and cell counts after 24 h, respectively, are shown for E. coli ATCC8739 (2×10^4 CFU/mL inoculum) FIG. 5B and FIG. 5C, S. aureus ATCC29213 (2×10^9 CFU/mL inoculum) FIG. 5D and FIG. 5E, E. coli 1812446 (KPC-positive) (2×10^4 CFU inoculum) FIG. 5F and FIG. 5G, and S. aureus (MRSA) ATCC33591 (2×10^9 CFU inoculum) FIG. 5H and FIG. 5I. Mice were treated intraperitoneally (i.p.) with 1, 5 and 10 mg Kg^−1 of mast-L, mast-MO or 10 mg Kg^−1 of the antibiotics gentamicin and imipenem. PBS was used as a control for the untreated group of mice. Treatments were administered 3 h post-infection. Data are expressed as the mean±standard deviation. Statistical analysis was performed using Bonferroni test. […], **p<0.01, ***p<0.001 compared to the untreated control.
(§2) Systemic bacterial infection mouse model. […] Animals were humanely killed 24 h after bacterial administration.

S. aureus MRSA ATCC33591 = test: Systemic sepsis infection mouse model, MRSA; type: in vivo; settings: 5 mg Kg^−1 i.p.
Method: as §1, §2

NLKALAALAKKIL [Mast-L]
Cytotoxic activity, Peptide Concentration [1]: 7 µmol/L
Cytotoxic activity, Peptide Concentration [2]: 50 µmol/L
Cytotoxic activity, Peptide Concentration [3]: 10 µmol/L
Cytotoxic activity, Peptide Concentration [4]: 10 µmol/L
Leukocyte recruitment over the time period tested, in words (leukocytes): did not significantly induce leukocyte recruitment
Survival (S. aureus ATCC29213): 80%
Survival (S. aureus MRSA ATCC33591): 60%
